One may read the Kd as the concentration at which binding is half-saturated.

Test [1] has as its target T1, human PCSK9 (PCSK9 antigen, SEQ ID NO. 53) (human, UniProt A8T644 31-152; Q8NBP7 153-692, Biotin-labelled on amines in the MSD-SET and sorting experiments; positions not given.). The test is described as follows: cell-based or functional assay.
For test [2], the target named is T1, human PCSK9 (PCSK9 antigen, SEQ ID NO. …). As to the kind of experiment: flow cytometry, PCSK9 left on CHO-LDLR cells (anti-His-FITC) after premix with 1 nM antibody.
The target is the same in test [3]. As to the kind of experiment: flow cytometry, PCSK9 left on CHO-LDLR cells (anti-His-FITC) after premix with 10 nM antibody. In general terms: In flow cytometry, cells or beads pass a laser one at a time.
The target is the same in test [4]. As to the kind of experiment: flow cytometry, PCSK9 left on CHO-LDLR cells (anti-His-FITC) after premix with 100 nM antibody.
Test [5] shares this target. As to the kind of experiment: cell-based or functional assay. This is another data set of the same source.
For test [6] the target is unchanged. The test is described as follows: flow cytometry, PCSK9 left on CHO-LDLR cells (anti-His-FITC) after premix with 0.1 nM antibody.
For test [7] the target is unchanged. As to the kind of experiment: flow cytometry, PCSK9 left on CHO-LDLR cells (anti-His-FITC) after premix with 1000 nM antibody.
Test [8] addresses T2, murine PCSK-9 (murine, UniProt Q80W65 35-694).
T2 construct: also called mouse PCSK9
As to the kind of experiment: BLI (ForteBio), IgG on AHQ sensor, 100 nM antigen.

In test [9] the target is T1, human PCSK9 (PCSK9 antigen, SEQ ID NO. …). The test is described as follows: BLI (ForteBio), IgG on AHQ sensor, 100 nM antigen. Background: BLI is a label-free optical method that tracks binding on a fibre tip over time.
For test [10] the target is unchanged. The test is described as follows: MSD-SET, Fab with biotin-PCSK9 in solution, IgG on plate, pH 6.0.
In test [11] the target is T2, murine PCSK-9. As to the kind of experiment: MSD-SET, Fab with biotin-PCSK9 in solution, IgG on plate, pH 7.4.
Test [12] addresses T1, human PCSK9 (PCSK9 antigen, SEQ ID NO. …). The test is described as above.

B1: ADI-10085 (antibody, human IgG2, kappa, V domains shown)
VH: QLQLQESGPGLVKPSETLSLTCTVSGGSIVSSSYYWAWIRQPPGKGLEWIGSINYKGSTYYNPSLKSRVTISVDTSKNQFSLKLSSVTAADTAVYYCARENSGVVPAAGPNWFGPWGQGTLVTVSS
VL: EIVLTQSPATLSLSPGERATLSCRASQSVSSYLAWYQQKPGQAPRLLIYDASNRATGIPARFSGSGSGTDFTLTISSLEPEDFAVYYCQQRRNWFTFGGGTKVEIKR
notes: IgG
In the case of B1, the “fluorescence of BODIPY-LDL in HepG2 cells against no anti-PCSK9 antibody” value (from here on “fluorescence … against no anti-PCSK9 antibody”) in test [1] is about 2 times. Also, the “Fluorescence Signal Value” in [2] is 8910. Besides, in test [3], the “Fluorescence Signal Value” was determined as 5680. Besides, in [4], the “Fluorescence Signal Value” was 5090. In addition, in [5], the “BODIPY-LDL uptake by HepG2 cells, fluorescence, 4.2 nM, replicate 1” value (“BODIPY-LDL uptake … 4.2 nM, replicate 1” below) was 0.423; the “BODIPY-LDL uptake by HepG2 cells, fluorescence, 4.2 nM, replicate 2” value (shortened to “BODIPY-LDL uptake … 4.2 nM, replicate 2”) turned out to be 0.435; the “BODIPY-LDL uptake by HepG2 cells, fluorescence, 16.8 nM, replicate 1” value (“BODIPY-LDL uptake … 16.8 nM, replicate 1” for short) amounted to 0.78; the “BODIPY-LDL uptake by HepG2 cells, fluorescence, 16.8 nM, replicate 2” value (“BODIPY-LDL uptake … 16.8 nM, replicate 2” for short) came out at 0.742. In test [5], the “BODIPY-LDL uptake by HepG2 cells, fluorescence, 66.7 nM, replicate 1” value (“BODIPY-LDL uptake … 66.7 nM, replicate 1” for short) was 0.749 and the “BODIPY-LDL uptake by HepG2 cells, fluorescence, 66.7 nM, replicate 2” value (“BODIPY-LDL uptake … 66.7 nM, replicate 2” for short) is 0.797. Moreover, in [6], the “Fluorescence Signal Value” was determined as 10400. Further, the “Fluorescence Signal Value” in test [7] worked out at 5700. In the test with murine PCSK-9 [8], this molecule yielded a dissociation constant Kd of 544 pM. Further, the Kd in [9] turned out to be 295 pM.

B2: ADI-10087 (antibody, human IgG2, kappa, V domains shown)
VH: QLQLQESGPGLVKPSETLSLTCTVSGGSISSASYYWSWIRQPPGKGLEWIGSINYRGSTYYNPSLKSRVTISVDTSKNQFSLKLSSVTAADTAVYYCARENSGVVPAAGPNWFGPWGQGTLVTVSS
VL: EIVLTQSPATLSLSPGERATLSCRASQSVSSYLAWYQQKPGQAPRLLIYDASNRATGIPARFSGSGSGTDFTLTISSLEPEDFAVYYCQQRRNWFTFGGGTKVEIKR
notes: also called anti-PCSK antibody of the invention
As to B2, the “fluorescence … against no anti-PCSK9 antibody” value in test [1] is about 2 times. For the same molecule, the “Fluorescence Signal Value” in [2] turned out to be 6480. In addition, the “Fluorescence Signal Value” in [3] was determined as 5740. Further, the “Fluorescence Signal Value” in test [4] was 5260. In addition, in test [5], the “BODIPY-LDL uptake … 4.2 nM, replicate 1” value is 0.37; the “BODIPY-LDL uptake … 4.2 nM, replicate 2” value stood at 0.403; the “BODIPY-LDL uptake … 16.8 nM, replicate 1” value was 0.72; the “BODIPY-LDL uptake … 16.8 nM, replicate 2” value was 0.683. Also, in test [5], the “BODIPY-LDL uptake … 66.7 nM, replicate 1” value turned out to be 0.758 and the “BODIPY-LDL uptake … 66.7 nM, replicate 2” value came to 0.775. In addition, the “Fluorescence Signal Value” in test [6] worked out at 6860. For the same molecule, in [7], the “Fluorescence Signal Value” was 5090. The molecule further yielded a Kd with murine PCSK-9 [8] of 558 pM. The molecule also displayed a dissociation constant (Kd) in test [9] of 296 pM.

B3: ADI-10088 (antibody, human IgG2, kappa, V domains shown)
VH: QLQLQESGPGLVKPSETLSLTCTVSGGSIGSSSYYWAWIRQPPGKGLEWIGSINYRGSTYYNPSLKSRVTISVDTSKNQFSLKLSSVTAADTAVYYCARENSGVVPAAGPNWFDPWGQGTLVTVSS
VL: EIVLTQSPATLSLSPGERATLSCRASQSVSSYLAWYQQKPGQAPRLLIYDASNRATGIPARFSGSGSGTDFTLTISSLEPEDFAVYYCQQRRNWFTFGGGTKVEIKR
notes: IgG
Take B3: the “fluorescence … against no anti-PCSK9 antibody” value in test [1] is about 2 times. Moreover, the “Fluorescence Signal Value” in [2] turned out to be 6830. Further, in [3], the “Fluorescence Signal Value” was determined as 5830. Also, in [4], the “Fluorescence Signal Value” came to 5160. Also, in [5], the “BODIPY-LDL uptake … 4.2 nM, replicate 1” value stood at 0.357; the “BODIPY-LDL uptake … 4.2 nM, replicate 2” value was 0.401; the “BODIPY-LDL uptake … 16.8 nM, replicate 1” value worked out at 0.574; the “BODIPY-LDL uptake … 16.8 nM, replicate 2” value amounted to 0.561. Moreover, in test [5], the “BODIPY-LDL uptake … 66.7 nM, replicate 1” value came out at 0.706 and the “BODIPY-LDL uptake … 66.7 nM, replicate 2” value was found to be 0.752. Also, in test [6], the “Fluorescence Signal Value” came to 6800. In addition, the “Fluorescence Signal Value” in test [7] was determined as 5220. Further, binding with murine PCSK-9 [8] was characterised by a dissociation constant (Kd) of 855 pM. In addition, the equilibrium dissociation constant (Kd) in test [9] stood at 471 pM.

B4: ADI-09113 Fab (Fab, V domains shown)
VH: QLQLQESGPGLVKPSETLSLTCTVSGGSVSSSSYYWGWIRQPPGKGLEWIGSAYYSGSTYYNPSLKSRVTISVDTSKNQFSLKLSSVTAADTAVYYCARENSGVVPAAGPNWFDPWGQGTLVTVSS
VL: EIVLTQSPATLSLSPGERATLSCRASQSVSSYLAWYQQKPGQAPRLLIYDASNRATGIPARFSGSGSGTDFTLTISSLEPEDFAVYYCQQRRNWFTFGGGTKVEIKR
With B4, the Kd in [10] came to 650 pM; with murine PCSK-9 [11], 760 pM; in [12], 170 pM.

B5: ADI-10089 Fab (Fab, V domains shown)
VH: QLQLQESGPGLVKPSETLSLTCTVSGGSIGSSSYYWTWIRQPPGKGLEWIGSINYRGSTYYNPSLKSRVTISVDTSKNQFSLKLSSVTAADTAVYYCARENSGVVPAAGPNWFDPWGQGTLVTVSS
VL: EIVLTQSPATLSLSPGERATLSCRASQSVSSYLAWYQQKPGQAPRLLIYDASNRATGIPARFSGSGSGTDFTLTISSLEPEDFAVYYCQQRRNWFTFGGGTKVEIKR
In the case of B5, the Kd in test [10] is 10 pM; with murine PCSK-9 [11] it was 70 pM; in [12] it was 11 pM.

B6: ADI-10090 Fab (Fab, V domains shown)
VH: QLQLQESGPGLVKPSETLSLTCTVSGGSIWSSSYYWTWIRQPPGKGLEWIGSINYRGSTYYNPSLKSRVTISVDTSKNQFSLKLSSVTAADTAVYYCARENSGVVPAAGPNWFDPWGQGTLVTVSS
VL: EIVLTQSPATLSLSPGERATLSCRASQSVSSYLAWYQQKPGQAPRLLIYDASNRATGIPARFSGSGSGTDFTLTISSLEPEDFAVYYCQQRRNWFTFGGGTKVEIKR
In the case of B6, the values for the Kd (in [10]; with murine PCSK-9 [11]; in test [12]) were 21 pM, 120 pM and 17 pM, respectively.

B7: ADI-09111 Fab (Fab, V domains shown)
VH: QLQLQESGPGLVKPSETLSLTCTVSGGSISSSSYYWGWIRQPPGKGLEWIGSIYYSGSTYYNPSLKSRVTISVDTSKNQFSLKLSSVTAADTAVYYCARENSGVVPAAGPNWFDPWGQGTLVTVSS
VL: EIVLTQSPATLSLSPGERATLSCRASQSVSSYLAWYQQKPGQAPRLLIYDASNRATGIPARFSGSGSGTDFTLTISSLEPEDFAVYYCQQRRNWFTFGGGTKVEIKR
For B7, the equilibrium dissociation constant (Kd) came to 1900 pM in test [10], 3500 pM with murine PCSK-9 [11] and 700 pM in test [12].

B8: ADI-10087 Fab (Fab, V domains shown)
VH: QLQLQESGPGLVKPSETLSLTCTVSGGSISSASYYWSWIRQPPGKGLEWIGSINYRGSTYYNPSLKSRVTISVDTSKNQFSLKLSSVTAADTAVYYCARENSGVVPAAGPNWFGPWGQGTLVTVSS
VL: EIVLTQSPATLSLSPGERATLSCRASQSVSSYLAWYQQKPGQAPRLLIYDASNRATGIPARFSGSGSGTDFTLTISSLEPEDFAVYYCQQRRNWFTFGGGTKVEIKR
B8: the values for the Kd (in [10]; with murine PCSK-9 [11]; in test [12]) were 9.8 pM, 41 pM and 5 pM, respectively.

B9: ADI-10086 Fab (Fab, V domains shown)
VH: QLQLQESGPGLVKPSETLSLTCTVSGGSIRSSAYYWGWIRQPPGKGLEWIGSINYRGSTYYNPSLKSRVTISVDTSKNQFSLKLSSVTAADTAVYYCARENSGVVPAAGPNWFGPWGQGTLVTVSS
VL: EIVLTQSPATLSLSPGERATLSCRASQSVSSYLAWYQQKPGQAPRLLIYDASNRATGIPARFSGSGSGTDFTLTISSLEPEDFAVYYCQQRRNWFTFGGGTKVEIKR
B9: the Kd came to 13 pM in [10], 60 pM with murine PCSK-9 [11] and 8.6 pM in test [12].

The values above are taken from patent publication US20200087416A1 (Innovent, published 2020).
